Reference: paper PMC10203282, “Structural analysis of an endogenous 4-megadalton succinyl-CoA-generating metabolon” (Communications Biology, 2023)

Tests used:
[1] = molecular target: dihydrolipoyl succinyltransferase (E2o) of the oxoglutarate dehydrogenase complex (Chaetomium thermophilum (endogenous in the native cell extract)); experiment: cryo-EM structure; native SEC fraction of C. thermophilum lysate, 0.3 mg/mL, single-particle analysis with octahedral symmetry; E2o core map at 3.35 Å
[2] = substrate: CC(C)(COP(=O)(O)OP(=O)(O)OC[C@H]1O[C@@H](n2cnc3c(N)ncnc32)[C@H](O)[C@@H]1OP(=O)(O)O)[C@@H](O)C(=O)NCCC(=O)NCCS; experiment: cells, lysate or membranes; format: biochemical, Thermochaetoides thermophila; settings: native SEC fraction, 4 mM α-ketoglutarate, 3 mM NAD+, 2 mM ThDP, 2 mM MgCl2, 100 mM NaCl, 30 mM K2HPO4 pH 7.5, 37 °C, CoA 5-1000 µM, substrate excess inhibition, linear asymptote used

Molecule	stoichiometry N [1]	Km [2] [µM]
dihydrolipoyl succinyltransferase (E2o) of the oxoglutarate dehydrogenase complex (enzyme)	24	
OGDHc (E2o as CoA site) (Thermochaetoides thermophila DSM 1495) (protein, same complex as P1: endogenous native OGDHc in SEC fraction 6 of cell extract; with 2-oxoglutarate dehydrogenase, mitochondrial; Dihydrolipoyl dehydrogenase, mitochondrial; Alpha-ketoglutarate dehydrogenase subunit 4, mitochondrial) TYADKIIKVPQMAESITEGTLKQWNKAVGDYVEADEEIATIETDKIDVAVNAPEAGVIKEFFVNEEDTVLVGQDLVRLEVGGEKPAEAAKEQPKAAAPEPKVEEKKVPEAPAPEPSKTAAPAPAPPKQEAPASPKPASKPAETPAVTLGNREERRVKMNRMRLRIAERLKQSQNTAASLTTFNEVDMSALIEFRNKYKDEVLKKTGVKLGFMSAFSRAVVLAIRDLPVVNASIEGPNGGDTIVYRDYVDISVAVATEKGLVTPVVRNAETMDLITIEKTIAELGKKARDGKLTIEDMAGGTFTISNGGVFGSLMGTPIINLPQSAVLGLHAIKERPVAVNGKVEIRPMMYLALTYDHRLLDGREAVQFLVKVKEYIEDPRKMLL		22.81 ± 11.93
